Results: PMC9023283

Molecular target: mature METTL8-Iso1 (Met1-Gln22 deleted) with a C-terminal His6 tag (human)
Test: SEC

In the case of “mature METTL8-Iso1 (Met1-Gln22 deleted) with a C-terminal His6 tag (enzyme)”, the stoichiometry N is reported as 8.
